Data on 9 substances can be found in article doi:10.1101/2022.10.06.510747.

In experiment [1] the target is PfTGS1-NLS-GFP (bi-partite NLS of P. falciparum trimethyl guanosine synthase 1 fused to GFP) (Plasmodium falciparum). Put plainly: SPR.
Experiment [2] deals with ΔIBB-TgImpα (T. gondii importin α lacking the IBB domain, amino acids 92-545, C-terminal His-tag) (Toxoplasma gondii). Put plainly: pull-down.
In experiment [3] the target is PfTGS1-NLS-GFP (bi-partite NLS of P. falciparum trimethyl guanosine synthase 1 fused to GFP) (Plasmodium falciparum). Put plainly: SPR. The source holds these as a separate data set.
For the next experiment, the target named is SV40 T-ag-NLS-GFP (SV40). The experiment can be described thus: AlphaScreen or HTRF.

Read-outs that look alike come from different tables or passages of the source.

The substance “AAA-TgImpα (KKR/AAA mutant of the third basic cluster) (natural protein)” gave a dissociation constant (Kd) in experiment [1] of 280 nM.

In experiment [1], “KRR-TgImpα (KKR/KRR mutant of the third basic cluster) (natural protein)” came in with a Kd of 1450 nM. Take “MmHinge-TgImpα (TgImpα chimera containing the hinge motif from MmImpα2) (from UniProt P52293 57-70)”: the Kd in experiment [1] was found to be 5.1 nM.

With “PfTGS1-NLS-GFP (bi-partite NLS of P. falciparum trimethyl guanosine synthase 1 fused to GFP) (domain or fragment)”, the relative band intensity (pulled down by ΔIBB-TgImpα over WT-TgImpα) in experiment [2] is 4.6.

“SKR-TgImpα (KKR/SKR mutant of the third basic cluster) (natural protein)” yielded a Kd in experiment [1] of 410 nM. With “WT-TgImpα (full-length Toxoplasma gondii importin α with C-terminal His-tag) (natural protein)”, the Kd in experiment [3] came out at 830 nM; in experiment [1] it was 3.26 nM. For “WT-TgImpα with a C-terminal GST tag (from UniProt A0A125YID0 1-545) (natural protein)”, the dissociation constant Kd with SV40 T-ag-NLS-GFP (SV40) was determined as 3.5 nM. With “pre-dimerized TgImpα/MmImpβ1 (from UniProt P70168 1-876) (complex)”, the Kd in the experiment with SV40 T-ag-NLS-GFP (SV40) came out at 1.5 nM. With “ΔIBB-TgImpα (T. gondii importin α lacking the IBB domain, amino acids 92-545, C-terminal His-tag) (domain or fragment)”, in experiment [3], the Kd stood at 240 nM.
